According to publication PMC8079415 (2021):

Molecular target: full-length human Bcl-2 protein (human, UniProt P10415 1-239)
Assay: NMR; 5 mM DPC micelles, pH 6.0, 310 K

Sequence of full-length human Bcl-2 protein (P10415 other isoform, or with tags, fused parts or gaps): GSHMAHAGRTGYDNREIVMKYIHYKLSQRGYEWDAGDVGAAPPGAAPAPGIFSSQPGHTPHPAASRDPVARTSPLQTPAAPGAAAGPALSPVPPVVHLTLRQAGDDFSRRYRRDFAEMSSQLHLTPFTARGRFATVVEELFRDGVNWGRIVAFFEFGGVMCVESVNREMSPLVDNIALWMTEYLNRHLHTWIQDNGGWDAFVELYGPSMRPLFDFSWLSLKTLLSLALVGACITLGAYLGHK

- Kd: 143 µM
Binder: Ac-QPPQDASTKKLSECLRRIGDELDSNMELQRMIADVD-NH2 [36-mer Bax-BH3 peptide from Mus musculus]
